Data set [1] addresses T1, ZF5 (Homo sapiens, UniProt O43829 O43829:1-449).
T1 sequence: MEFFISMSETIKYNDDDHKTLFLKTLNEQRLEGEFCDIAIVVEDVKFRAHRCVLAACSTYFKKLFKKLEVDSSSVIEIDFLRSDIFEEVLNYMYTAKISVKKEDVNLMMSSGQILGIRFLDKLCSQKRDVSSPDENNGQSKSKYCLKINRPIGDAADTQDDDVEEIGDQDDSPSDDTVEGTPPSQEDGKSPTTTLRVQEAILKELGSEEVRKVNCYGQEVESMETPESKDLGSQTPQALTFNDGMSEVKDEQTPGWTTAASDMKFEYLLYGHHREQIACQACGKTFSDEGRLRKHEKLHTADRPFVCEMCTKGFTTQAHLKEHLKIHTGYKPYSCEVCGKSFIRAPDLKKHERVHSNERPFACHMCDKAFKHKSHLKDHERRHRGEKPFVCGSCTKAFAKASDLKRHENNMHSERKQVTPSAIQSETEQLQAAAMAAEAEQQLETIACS
Description: EMSA; competed by excess unlabeled wild-type RRS. The following applies: tags: untagged and N-terminal 6xMyc versions; label: 32P. In general terms: Mobility shift assays separate free from complexed probe on a gel.

The target in data set [2] is T2, ZF5C (clone A25, C-terminal ZF5 fragment) (Homo sapiens, UniProt O43829 O43829:308-449).
T2 sequence: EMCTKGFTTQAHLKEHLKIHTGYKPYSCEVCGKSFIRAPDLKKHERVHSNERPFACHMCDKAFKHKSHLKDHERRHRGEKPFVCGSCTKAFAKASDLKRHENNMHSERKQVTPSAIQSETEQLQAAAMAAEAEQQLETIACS
Put plainly: EMSA; blocked by wild-type RRS competitor. The note with it: tags: N-terminal 6xMyc; label: 32P.

For data set [3], the target named is T3, Rep78 (UniProt Q89268 Q89268:1-621).
T3 sequence: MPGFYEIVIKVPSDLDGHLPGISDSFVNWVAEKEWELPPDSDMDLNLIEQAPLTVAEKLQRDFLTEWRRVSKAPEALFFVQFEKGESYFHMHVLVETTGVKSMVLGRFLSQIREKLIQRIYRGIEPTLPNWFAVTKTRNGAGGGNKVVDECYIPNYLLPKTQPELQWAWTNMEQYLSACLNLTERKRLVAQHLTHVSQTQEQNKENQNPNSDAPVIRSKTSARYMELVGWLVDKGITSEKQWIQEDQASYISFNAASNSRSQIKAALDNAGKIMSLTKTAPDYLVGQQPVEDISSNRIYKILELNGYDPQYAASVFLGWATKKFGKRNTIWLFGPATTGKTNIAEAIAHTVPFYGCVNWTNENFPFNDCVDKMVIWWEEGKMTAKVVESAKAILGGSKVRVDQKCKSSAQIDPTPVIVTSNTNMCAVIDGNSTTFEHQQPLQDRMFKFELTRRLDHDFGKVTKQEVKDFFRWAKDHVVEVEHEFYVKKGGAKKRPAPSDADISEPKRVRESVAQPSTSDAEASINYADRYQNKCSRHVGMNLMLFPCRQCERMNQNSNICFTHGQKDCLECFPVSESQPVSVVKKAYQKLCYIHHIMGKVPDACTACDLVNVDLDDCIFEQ
Description: EMSA; blocked by wild-type RRS competitor. The note with it: label: 32P.

In data set [4] the target is T4, ZF5 zinc finger 4 mutant (Homo sapiens, UniProt O43829 O43829:1-449, C363S).
T4 sequence: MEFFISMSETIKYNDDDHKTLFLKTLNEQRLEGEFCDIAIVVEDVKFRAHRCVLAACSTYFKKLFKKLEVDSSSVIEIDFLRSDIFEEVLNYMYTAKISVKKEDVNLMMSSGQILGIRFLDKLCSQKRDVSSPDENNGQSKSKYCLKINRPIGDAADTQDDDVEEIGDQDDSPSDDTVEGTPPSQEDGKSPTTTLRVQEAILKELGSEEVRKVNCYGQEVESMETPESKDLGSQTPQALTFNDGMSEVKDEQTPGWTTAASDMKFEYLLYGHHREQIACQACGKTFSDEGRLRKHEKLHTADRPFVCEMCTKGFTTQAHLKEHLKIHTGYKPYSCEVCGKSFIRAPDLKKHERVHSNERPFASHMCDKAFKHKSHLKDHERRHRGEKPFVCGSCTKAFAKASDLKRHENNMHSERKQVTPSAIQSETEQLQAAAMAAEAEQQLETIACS
Put plainly: EMSA; no shift detected. The following applies: tags: untagged and N-terminal 6xMyc versions; label: 32P.

B1: RRS probe (core of 32-bp oligonucleotide) (dsDNA)
DNA 1: CTGCGCGCTCGCTCGCTCAC
DNA 2: GTGAGCGAGCGAGCGCGCAG
B1: the binding result is on record as “binds” in data set [1], “binds” in data set [2], “binds” in data set [3] and “no binding” in data set [4].

The values are drawn from patent US20020182595, “Method of identifying cellular regulators of adeno-associated virus (AAV)” (published 2002).
